# Experimental data taken from the supplement of paper PMC9233669.
# Fewer inactive variants are shown than the library holds.
# Key:
# biotinyl-Phe-oxazolone = assay: self-aminoacylation, catalytic enhancement (BFO) (fold over background); higher = more active; k-Seq, kA / k0A0; sequences stand for … in GGGAAUGGAUCCACAUCUACGAAUUC…UUCACUGCAGACUUGACGAAGCUG
# How it was run: (§1)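 Mutagenized RNA pools with a 21-nt variable region (0.43 μM) were reacted with each biotinyl-aminoacyl-oxazolone at 2–1250 μM for 90 minutes at room temperature, in 50 μL HEPES/NaCl/KCl/MgCl2/CaCl2 buffer containing 5% acetonitrile at pH 6.9–7.0. RNA captured on streptavidin was quantified by triplicate qPCR and by Illumina sequencing. The fraction reacted for each sequence was fit to a pseudo-first-order model with bootstrapping, and catalytic enhancement is the median kA divided by the uncatalyzed rate, taken as the low-activity peak of a bimodal Gaussian fit.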
# biotinyl-Ile-oxazolone = assay: self-aminoacylation, catalytic enhancement (BIO) (fold over background); higher = more active; k-Seq, kA / k0A0; sequences stand for … in GGGAAUGGAUCCACAUCUACGAAUUC…UUCACUGCAGACUUGACGAAGCUG
# How it was run: as §1
# biotinyl-Met-oxazolone = assay: self-aminoacylation, catalytic enhancement (BMO) (fold over background); higher = more active; k-Seq, kA / k0A0; sequences stand for … in GGGAAUGGAUCCACAUCUACGAAUUC…UUCACUGCAGACUUGACGAAGCUG
# How it was run: as §1
# biotinyl-Val-oxazolone = assay: self-aminoacylation, catalytic enhancement (BVO) (fold over background); higher = more active; k-Seq, kA / k0A0; sequences stand for … in GGGAAUGGAUCCACAUCUACGAAUUC…UUCACUGCAGACUUGACGAAGCUG
# How it was run: as §1
# biotinyl-Leu-oxazolone = assay: self-aminoacylation, catalytic enhancement (BLO) (fold over background); higher = more active; k-Seq, kA / k0A0; sequences stand for … in GGGAAUGGAUCCACAUCUACGAAUUC…UUCACUGCAGACUUGACGAAGCUG
# How it was run: as §1
# biotinyl-Trp-oxazolone = assay: self-aminoacylation, catalytic enhancement (BWO) (fold over background); higher = more active; k-Seq, kA / k0A0; sequences stand for … in GGGAAUGGAUCCACAUCUACGAAUUC…UUCACUGCAGACUUGACGAAGCUG
# How it was run: as §1
Sequence,self-aminoacylation (biotinyl-Phe-oxazolone),self-aminoacylation (biotinyl-Ile-oxazolone),self-aminoacylation (biotinyl-Met-oxazolone),self-aminoacylation (biotinyl-Val-oxazolone),self-aminoacylation (biotinyl-Leu-oxazolone),self-aminoacylation (biotinyl-Trp-oxazolone)
AUUCACCUAGGUUACCGGGUG [Fam2.2 aminoacylation ribozyme variant],18.5,2.49,3.68,2.63,3.98,3.78
AUUCACCUAGGUUAUCGGGAG [Fam2.2 aminoacylation ribozyme variant],0.308,1.21,1.17,1.55,1.17,0.528
AUUCACCUAGGUUAUCGGGUC [Fam2.2 aminoacylation ribozyme variant],1.59,1.2,1.13,1.08,1.11,0.944
AUUCACCUAGGUUAUCGGGUG [Fam2.2 aminoacylation ribozyme variant],28,2.89,4.34,3.15,5.2,4.33
AUUCACCUAGGUUAUCUGGUG [Fam2.2 aminoacylation ribozyme variant],35.2,3.02,5.29,2.95,5.96,4.49
AUUCACCUAGGUUAUGGGGUG [Fam2.2 aminoacylation ribozyme variant],78.4,5.44,8.25,4.76,11.2,8.28
AUUCACCUAGGUUUUCGGGUG [Fam2.2 aminoacylation ribozyme variant],34.3,3.03,4.67,3.5,5.21,4.06
AUUCACCUAGUUAAUCGGGUG [Fam2.2 aminoacylation ribozyme variant],20,2.01,3.08,2.04,3.98,3.53
AUUCACCUAGUUCAACGGGUG [Fam2.2 aminoacylation ribozyme variant],17.1,1.65,2.42,1.73,2.88,2.46
AUUCACCUAGUUCAUCGGAUG [Fam2.2 aminoacylation ribozyme variant],0.611,0.963,1.03,0.951,0.819,0.827
AUUCACCUAGUUCAUCGGUUG [Fam2.2 aminoacylation ribozyme variant],0.483,1.09,0.932,1.09,1.11,0.661
AUUCACCUAGUUCAUCUGGUG [Fam2.2 aminoacylation ribozyme variant],10.4,1.56,1.88,1.5,2.44,2.4
AUUCACCUAGUUCCUCGGGUG [Fam2.2 aminoacylation ribozyme variant],19.7,2.06,2.42,2.06,3.31,2.63
AUUCACCUAGUUCGUCGGGUG [Fam2.2 aminoacylation ribozyme variant],3.17,1.14,1.26,1.23,1.32,1.15
AUUCACCUAGUUUAUCGGGUG [Fam2.2 aminoacylation ribozyme variant],21.2,2.39,3.75,2.61,3.48,4.61
AUUCACCUAUCUCAUCGGGUG [Fam2.2 aminoacylation ribozyme variant],19.4,2.18,3.1,2.09,4.13,3.46
AUUCACCUAUGUAAUCGGGUG [Fam2.2 aminoacylation ribozyme variant],36.4,3.11,5.17,2.91,7.44,5.74
AUUCACCUAUGUCAUAGGGUG [Fam2.2 aminoacylation ribozyme variant],1.08,1.36,1.46,1.15,1.75,0.856
AUUCACCUAUGUCAUCAGGUG [Fam2.2 aminoacylation ribozyme variant],8.58,1.72,2.39,1.64,2.75,2.33
AUUCACCUAUGUCAUCGGUUG [Fam2.2 aminoacylation ribozyme variant],0.455,0.902,0.874,0.872,0.919,0.892
AUUCACCUAUGUCAUCUGGUG [Fam2.2 aminoacylation ribozyme variant],1.9,1.79,2.04,1.62,2.51,2.01
AUUCACCUAUGUUAUCGGGUG [Fam2.2 aminoacylation ribozyme variant],41.3,3.19,5.62,3.43,7.49,5.74

Sequence,self-aminoacylation (biotinyl-Phe-oxazolone),self-aminoacylation (biotinyl-Ile-oxazolone),self-aminoacylation (biotinyl-Met-oxazolone),self-aminoacylation (biotinyl-Val-oxazolone),self-aminoacylation (biotinyl-Leu-oxazolone),self-aminoacylation (biotinyl-Trp-oxazolone)
AUUCACCUCAGUCAUCGGGUG [Fam2.2 aminoacylation ribozyme variant],56.6,4.75,7.34,4.58,8.93,6.63
AUUCACCUCGCUCAUCGGGUG [Fam2.2 aminoacylation ribozyme variant],13.5,2.57,3.42,2.74,3.61,3.01
AUUCACCUCGGCCAUCGGGUG [Fam2.2 aminoacylation ribozyme variant],56.7,4.23,6.8,5.61,7.44,6.78
AUUCACCUCGGUCACCGGGUG [Fam2.2 aminoacylation ribozyme variant],41.9,5,6.37,4.43,6.77,8.88
AUUCACCUCGGUCAUGGGGUG [Fam2.2 aminoacylation ribozyme variant],28,2.57,3.94,2.96,4.31,4.7
AUUCACCUCGGUCAUUGGGUG [Fam2.2 aminoacylation ribozyme variant],35.5,3.14,4.91,2.91,5.53,4.34
AUUCACCUCGGUCCUCGGGUG [Fam2.2 aminoacylation ribozyme variant],53.2,4.17,6.33,4.23,7.19,7.07
AUUCACCUCGGUGAUCGGGUG [Fam2.2 aminoacylation ribozyme variant],28.3,4.21,4.66,4.6,5.47,6
AUUCACCUGGGUCAUCGAGUG [Fam2.2 aminoacylation ribozyme variant],3.55,2.4,3.54,2.59,4.18,3.74
AUUCACCUGGGUCAUUGGGUG [Fam2.2 aminoacylation ribozyme variant],31.1,3.51,4.52,4.03,6.07,4.15
AUUCACCUGGGUCUUCGGGUG [Fam2.2 aminoacylation ribozyme variant],38.6,4.14,5.53,5.01,7.31,5.25
AUUCACCUGGUCAUCGAGUGA [Fam2.1 aminoacylation ribozyme variant],9.12,3.55,5.88,3.58,5.93,8.2
AUUCACCUUAGUCAUCGGGUG [Fam2.2 aminoacylation ribozyme variant],38.8,3.73,6.02,3.83,7.94,5.66
AUUCACCUUGGGCAUCGGGUG [Fam2.2 aminoacylation ribozyme variant],22.9,3.58,3.99,3.69,4.33,5.41
AUUCACCUUGGUAAUCGGGUG [Fam2.2 aminoacylation ribozyme variant],24.4,2.23,3.95,2.35,5.19,3.98
AUUCACCUUGGUCACCGGGUG [Fam2.2 aminoacylation ribozyme variant],27.5,4.82,5.58,4.2,6.72,5.4
AUUCACCUUGGUCAUCCGGUG [Fam2.2 aminoacylation ribozyme variant],60.2,6.27,8.93,6.17,11.5,7.75
AUUCACCUUGGUCAUCGCGUG [Fam2.2 aminoacylation ribozyme variant],117,8.37,15.3,8.42,18.2,14.1
AUUCACCUUGGUCAUCGGCUG [Fam2.2 aminoacylation ribozyme variant],7.58,1.64,1.52,2.19,1.7,1.66
AUUCACCUUGGUCAUCGGGCG [Fam2.2 aminoacylation ribozyme variant],3.77,2.74,2.81,2.77,3.24,2.93
AUUCACCUUGGUCAUCGGGUG [Fam2.2 aminoacylation ribozyme variant],55.7,4.71,7.9,4.97,9.96,7.43
